In paper PMC9279372:

Molecular target: DEIP1-cYFP fusion protein (Arabidopsis thaliana)
Assay: split reporter (BiFC, NanoBiT); BiFC with vector pBIFCt-2in1-CC in N. benthamiana, Agrobacterium co-infiltration with p19; protoplasts isolated three days after infiltration; YFP and RFP fluorescence by confocal microscopy; 80 protoplasts in two independent experiments for each interaction

Chain of DEIP1-cYFP fusion protein (Arabidopsis thaliana) (main, as listed by the source): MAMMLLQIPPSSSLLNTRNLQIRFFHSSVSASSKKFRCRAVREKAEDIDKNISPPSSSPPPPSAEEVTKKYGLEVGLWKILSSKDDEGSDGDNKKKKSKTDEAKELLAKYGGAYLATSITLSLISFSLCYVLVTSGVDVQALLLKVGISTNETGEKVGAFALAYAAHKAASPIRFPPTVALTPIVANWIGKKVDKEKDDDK

percent of transfected protoplasts with YFP fluorescence | Substance
28% | PetB with the pea RBCS chloroplast transit peptide and C-terminal nYFP (from UniProt P56773 1-215)
30% | PetA with the pea RBCS chloroplast transit peptide and C-terminal nYFP (from UniProt P56771 36-320)
17% | PetD with the pea RBCS chloroplast transit peptide and C-terminal nYFP (from UniProt P56774 1-160)
54% | DEIP1-cYFP fusion protein (natural protein)
